Test results as given in the DeepSol protein solubility set.

Test: soluble on expression in E. coli; label from the status in PepcDB or PDB records

Sequence | soluble on expression in E. coli
MSLQPVAKTEQPEGGILYDFGKETFGFITLKNLSGKGKIDLYYGESPEEAKDKAYCETLDKLLLEPGQITDLAIRSTSPLHHSDNEYTLENSKAFRYVYITHEPEVQIGEVSMQYEYLPEEYRGNFRCNDEELNCIWEVGAYTMHLTTREFFIDGIKRDRWVWSGDAIQSYLMNYYLFFDSESVKRTIWLLRGKDPVTSHSNTIMDYTFYWFLSVYDYYMYSGDRHFVNQLYPRMQTMMDYVLGRTNKNGMVEGMSGDWVFVDWADGYLDKKGELSFEQVLFCRSLETMALCADLVGDKDGQQKYEKLASALKAKLEPTFWNNQKQAFVHNCVDGRQSDAVTRYANMFSVFFDYLNADKQQAIKQSVLLNDEILKITTPYMRFYELEALCALGEQETVMKEMKAYWGGMLKAGATSFWEKYNPEESGTQHLAMYGRPYGKSLCHAWGASPIYLLGKYYLGVKPTKEGYKEFAVSPVLGGLKWMEGTVPTPNGDIHVYMDNKTIKVKATEGKGYLTIQSREGHHHHHH | not soluble
SLTEKDVLSQEEIDALLDSVDESIDGETNDEELNSSDQPARKKPEDTTGQELNSTFDSDIKVAEEGVKTLNFTGQERIVKGQLPVLDKIYDRAVRLFAADIYHLTARDFEIKQDPLLITKHKEFMRSLPNPSLIGIYKFKPLRGKGIILFDSTFVYDLVDYYFGGNSQFGAQKDKTDFTATELRVMEVVTKKLVTNLTHAWEPIIQLDVTKFNDETNPQLVNIAEPEEMLLVARFLLNFGKETGAFYFILPYSMLEPIKQQLELGASRPDDEIDPNWINSLKEELMDVELTVSASMAETVSTLGQVMAWKVGDFVPLEINEEVTLDIEGTPSFTATLGSANEKRALKIIKIIRY | soluble
MAHHHHHHSAALEVLFQGPGMAETKLQLFVKASEDGESVGHCPSCQRLFMVLLLKGVPFTLTTVDTRRSPDVLKDFAPGSQLPILLYDSDAKTDTLQIEDFLEETLGPPDFPSLAPRYRESNTAGNDVFHKFSAFIKNPVPAQDEALYQQLLRALARLDSYLRAPLEHELAGEPQLRESRRRFLDGDRLTLADCSLLPKLHIVDTVCAHFRQAPIPAELRGVRRYLDSAMQEKEFKYTCPHSAEILAAYR | soluble
GPGSMAALRYLLAPRRALVTPFLRSVTCVSSGGIFSSQRPHTFPVLWHAVRTHSNDSGERSKPLTLHVQLPCGTMRTLTAYEGQTLLDVAMEHGLPIEGACGGSCACSTCHVYLENDEAMELFDEATDEENDMLDMAFFPQSTSRLGCQLTLRQQKHDGLKISLPKATRNMYVDGHTITPHH | not soluble
MAAQQRDCGGAAQLAGPAAEADPLGRFTCPVCLEVYEKPVQVPCGHVFCSACLQECLKPKKPVCGVCRSALAPGVRAVELERQIESTETSCHGCRKNFFLSKIRSHVATCSKYQNYIMEGVKATIKDASLQPRNVPNRYTFPCPYCPEKNFDQEGLVEHCKLFHSTDTKSVVCPICASMPWGDPNYRSANFREHIQRRHRFSYDTFVDYDVDEEDMMNQVLQRSIIDQ | soluble
SDDTLFQLKFTAKQLEKLAKKAEKDSKAEQAKVKKALQQKNVECARVYAENAIRKKNEGVNWLRMASRVDAVASKVQTAVTMKGVTKNMAQVTKALDKALSAMDLQKVSAVMDRFEQQVQNLDVHTSVMEDSVSSATTLTTPQEQVDSLIVQIAEENGLEVLDQLSQLPEGASAVGESSVRSQEDQLSRRLAALRN | soluble
MGNTAITRVQMEATKSVPVDHAKYMSGSGAPPPECPMHQKHGDAKSASAVPPHPKMQAASECPVQHDNSDVNPLNMMPPANQQPAADQPFPLPTDRQTSTIPKVTEDGSVQFWQYPSQQMFWNAMLRKGWRWKTEDVSQKDMGDIIRIHNANNEQAWQEVLKWEALHAKECGNPRLKSFGGKAKDFSPRARFRSWLGYELPFDRHDWIVDRCGKDVRYVIDYYDGGLVDKDYRFALLDVRPAMDSVDNVWDRMRVAYMRWKYELFEKFGSADGGKVTAGSDLEHHHHHH | not soluble
MRATTIEEPARQVPLYGEYEVVVLGGGPAGIIAAASAARAGRKTLLIERYGFLGGMGTAAGVTNFCGLHGNVYGQAHRLVQGLASELLARIDLLNGLNTPHLILGKVFAQAYDTAAYKIAADELLASHKVNILFHALGAGVVMGDNSRIDALMVETKAGRQAVRSEIFIDCSGDGDLAVWAGAPFEVGDEHGHPLYPSMMLRLNNIDPEKAGEAWRTIPQLMEKALAAGTHKFPRKSAIVRPQKSGIEWRVNFTQVAREDGHAINGIEPDDLTRGEIEGRRQALAAFEFLRTVPGFEKSYIVDLPPQLGIRETRRIKGGYQLSGEDVLGCASFEDSIGVNGWPIEAHVPGDVIFTFPPIPESRGYNELPYRMLVPEGVDNLLVAGRCASMTHEGQSAARVSGACFVMGEAAGSAAALALSGNRIPRDIPIEKLQETLKQQGAFIGRDQPVPEGLLEHHHHHH | not soluble
MSPDQKHRYKLYYVNMRGRAEPIRLVFHFLGVDFEDYRMDKGDFTGAMKDKAPMKQLPFIEIDGGKTTLCQTVSICRYLAKSIQPDRWFGGATKTDSAKVDMMADGFADLFQLAAMAKYAPDPIKDSMMGTYKESIGPKLENMQDLLKKSKGEYFVGKSIHWCDVYILGVLQALDESDDGVFDNLPELREYYLRMRNLPELKEYIDANWPETKYKE | not soluble
GMETTHYSIAQHFSSGDFPAVYACFNDIIEWNIIGNQVVKGKADVIDFCNKMLPEMKGAVLTNDNVIQNENQIVIEGKCRYFDAEGKEAFVSYCDIYRFENDTIKTITSYCI | soluble
MLPSAQVARLKPDPFPPSLSPIPHGAVTFAALAPCHNLPIFSSRQMLRDSLTYSHTSPTMSPQIANRFEASLDAQDIARISLFTLESGVILRDVPVAYKSWGRMNVSRDNCVIVCHTLTSSAHVTSWWPTLFGQGRAFDTSRYFIICLNYLGSPFGSAGPCSPDPDAEGQRPYGAKFPRTTIRDDVRIHRQVLDRLGVRQIAAVVGASMGGMHTLEWAFFGPEYVRKIVPIATSCRQSGWCAAWFETQRQCIYDDPKYLDGEYDVDDQPVRGLETARKIANLTYKSKPAMDERFHMAPGVQAGRNISSQDAKKEINGTDSGNSHRAGQPIEAVSSYLRYQAQKFAASFDANCYIAMTLKFDTHDISRGRAGSIPEALAMITQPALIICARSDGLYSFDEHVEMGRSIPNSRLCVVDTNEGHDFFVMEADKVNDAVRGFLDQSLM | soluble
DITVYNGQHKEAATAVAKAFEQETGIKVTLNSGKSEQLAGQLKEEGDKTPADVFYTELTATFADLSEAGLLAPISEQTIQQTAQKGVPLAPKKDWIALSGRSRVVVYDHTKLSEKDMEKSVLDYATPKWKGKIGYVSTSGAFLEQVVALSKMKGDKVALNWLKGLKENGKLYAKNSVALQAVENGEVPAALINNYYWYNLAKEKGVENLKSRLYFVRHQDPGALVSYSGAAVLKASKNQAEAQKFVDFLASKKGQEALVAARAEYPLRADVVSPFNLEPYEKLEAPVVSATTAQDKEHAIKLIEEAGLK | soluble
MAEMTEMQVHEERVMNLVESSSGTPTITPLTKTNAHRAESIRRIGTDKDAVAFHFRKKSTGMYMYIHTYTENGEEKELRASDFKNWEVTEFKYPGYLEELEEIAVNAYRWNSHDPETRAETDIMGYEKQLHEDLKKIPEAKKRITSILTKVKYPFYSTASHAAQTRW | not soluble
SMGKEKSKEPRDPDQLYSTLKSILQQVKSHQSAWPFMEPVKRTEAPGYYEVIRFPMDLKTMSERLKNRYYVSKKLFMADLQRVFTNCKEYNPPESEYYKCANILEKFFFSKIKEAGLID | soluble
MHESVTANIENVKKVAHHIQKLTSIVPEIGIICGSGLGKLADGVKDKITIPYTKIPNFPQTSVVGHSGNLIFGTLSGRKVVVMQGRFHMYEGYSNDTVALPIRVMKLLGVKILMVSNAAGGLNRSLKLGDFVILKDHIYLPGLGLNNILVGPNQEAFGTRFPALSNAYDRDLRKLAVQVAEENGFGNLVHQGVYVMNGGPCYETPAECTMLLNMGCDVVGMSTIPEVVIARHCGIQVFAVSLVTNISVLDVESDLKPNHEEVLATGAQRAELMQSWFEKIIEKLPKD | soluble
MSLKSTVLLIDDDQDVLDSYLHLMSIAGLTAKAVIDPTQAMSHIQPDWNGVVLLDMYMPQLHGMELLKQIKAVDDKIPVIVITGHGDIPMAVEAVKMGACDFLEKPINPPQLLTLIKQHLELRRSFIEQKLLLSRSVKRELVGKSAQMEQIRSHVAQYALLNRHVVIVGESGCGRHTIAYLIHQLTTNNGHLPWVELVASAKTEWSTVEPKVQESAGGTLLIDHIELLSEEVQRNVVQSLLNQERLNRPRTRVIAVIDQPPEQLIAQNQLLPELYYLLNQGQIDVPLLRQRPDDIAALFHYFLKQSCYKLGKPMPNVEPHYLALLRAHQWPGNVRELRNVAELYAIGIVKLAGKERLYNQEEMLSPLDELVDDYEKQVIEDALFLFSGRVADAANYLQVPRKKLYLRMKKHGLEKDAFKAREGHHHHHH | soluble
MSLKKIGIIGAGGIARAHATALSTIKNAELVGVYDINQQNAESFVKTFGGKSFENVDELIDASEGLIVASPNFCHKEHALQALGKHKHVLCEKPMAISLEEASIMKDTAERLSVRASMGFNYRYLSYVNILKSLIINNELGNILSIKVHFKKNSALRRKKFTWRDDANSKKTSGSLGDLGIHLIDMVWYLFESDFITESVRAKMNTNVKTKEDKQVLVDDYAEIYGQLRNKVFVNIITSKCSVPEDCGFSIEVVGHKKEFKYHTGNPHVYKLIDGLNVVDCPVPQSLLNDPPNEFYGWADSFRSELINWIASTQNDWVEIPSFSDGFRSQEVLEMFFEKDSNSQPMSVSAVNEGHHHHHH | soluble
KRAPDGRVLDIAGTEHSLHDLTRGKISLVSFVYLTCGDVNGCPLAMSVFFDVHDASGDLPGLNEDVQLLTISFDPARDTVEAIEAFAYPITSDEQAGDKLNWQVLTTSGPQELRPILDGYGQVVDRSEDQETISHLLRLFLVDRQGDIRNVYGLGFLDPRLLLTDIETLLMEEAGA | soluble
MSCTGFWRKLASGEECGAAARLLGAVLAIPAALYGLVVRLRALAYARGLSTVRHLDRPVISVGNLTVGGTGKTPMVAYLARRLMARGKRVAVISRGYGGSLEGETRIVSDGRTIVLSAAEAGDEPVHLATSVPGLMTVIGTDRYTAGLLALEQLDPDVFILDDGYQHLRLHRDLNILLMDCNRPLGNGRTLPAGLLREPQTAVRRADLVVYTRCTGGKAPAVHGMIPSCRAGHALTGAALLPDGEVQPLAALRGLRGVACAGIAEPEGFFDALRREGLDIVAAIPFADHASYGEREVSTLREAAAGADYLITTGKDGVKLSAHLARLLPVYATVLEMRPLDPAPLEAALDKVLTHISSCKSLEHHHHHHTHISSCKSLEHHHHHHTHISSCKSLEHHHHHHTHISSCKSLEHHHHHHTHISSCKSLEHHHHHHTHISSCKSLEHHHHHHTHISSCKSLEHHHHHH | not soluble
MDREVEAQIGLNNVKILKSNILDSDEGKLFLKFGDEDLVIGELESLKAIQSTETILCPKPFGIIRRNGSYSLITSYIDFQLRKDWALAGSQLAKMHAKNGEQLAQNARRTRFVSVNSGMSDISKSEEGEQIGTENFGFHVTTCCGRLGQENDWTETWEEFFIRHRLKPQIDRLIETHNDRQLFELSEILYTKTAKLLKCRENVLPSLVHGDLWGGNWSMTTADGAPEPIIFDPSSSYSDPEFEFGIMKMFGGWTQDFENKYEKIIKTADGKNQRVLLYELYHNLNHWNHFGNSYRKKEKKLDKIYNNVYNNCYNNVRKNYCTKRITPKSGKLRNKAVRHPDFLANGIRRSPNLNFRSAIVICRSPFAAQPWYVAQLSKLEVMITDLIQM | not soluble
